Measured values taken from patent US20110311550A1 (Scripps Research, published 2011).
Residue numbers refer to the chain shown, from its start.

B1: Fab U2 (Fab, V domains shown)
VH: VQLLEQSGAEVKRPGSSVKLSCKNSGGTFITQAMSWVRQAPGQGLEWMGGIIPVFGTVNYAQNILDRATATADEDTFSLELRGLRLEDTAVYYCAREVNLKTWNLARPDVFDIWGPGTLVTVSS
VL: ELTQSPSSLSASIGDRVTIPCRASQSILNHLNWYQQKPGQPPKLLIFAASNLQSGVPSRFSGSGSGTDFTLTISSLQTEDFATYYCQQSYSTPRTFGQGTKVEVKR
B2: Fab N1 (Fab, V domains shown)
VH: VQLLEQSGPEVKKPGDSLRISCKMSGDSLVTTWIGWVRQKPGQGLEWMGIINPGDSSTNIYPGDSATRYGPSFQGQVTISIDKSTSTAYLQWNAVKPSDTGIYYCARHVPVPISGTFLWREREMHDFGYFDDWGQGTLVIVSS
VL: ELTQSPGTLSLSPGERATLSCRASQSVSSSYLAWYQQKPGQAPRLLIYGASNRAAGIPDRFSGSGSGADFTLTISRLEPEDFAVYYCQQYGSSLITFGQGTRLEIKR
notes: Soluble Fab
B3: Fab N2 (Fab, V domains shown)
VH: B2 VH with A94T
VL: ELTQSPGTLSLFPGERATLSCRASQSILGRYLAWYQQKGGRAPRLLIFGASKRATGIPDRFSGSGSGTDFTLTIGRLEPEDFAVYYCQHYGSSITFGQGTRLDIKR
notes: Soluble Fab
B4: Fab S2 (Fab, V domains shown)
VH: VQLLEQSGAEVKKPGASVKVSCTASGYIFTSFGISWVRQAPGQGLEWMGRIDTYNGKTNYAQKLQGRVTMTTDTYTSTAYMELRSLTSDDTAVYYCARDDCRSSTCYLAQHNWQAYYHDSWGQGTLVTVSS
VL: B2 VL with G7A, S30R, Y31F, N52S, A55T, A68T, L94P, I95Q, R102K, L103V
B5: Fab L5 (Fab, V domains shown)
VH: VQLLEQSGTEVKKPGSSVKVSCKVPGDTFRSYVITWVRQAPGQGLEWLGGILPFFGTTNLAQKFQGRVTLTADESTTTAYMELSSLRAEDTAVYYCAKAGDLAFGGVIAGGVPHLSHFDPWGQGTLVTVSS
VL: ELTQSPGTLSLSPGERATLSCRASQSVRSNYLAWYQQKPGQAPRLLIYGASSRATGIPDRFSGSGSGTDFTLTISRLEPEDFAMYYCQQYGSSMCSFGQGTKVEIKR
B6: Fab L6 (Fab, V domains shown)
VH: B5 VH with A40S, A88S, S131A
VL: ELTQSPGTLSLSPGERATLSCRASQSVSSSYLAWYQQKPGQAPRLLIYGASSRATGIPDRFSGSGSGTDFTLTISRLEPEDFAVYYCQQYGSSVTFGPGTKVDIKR
B7: Fab U3 (Fab, V domains shown)
VH: VQLLEQSGAEVKRPGSSVKISCKNSGGTFITQAMSWVRQAPGQGLEWMGGIIPIFGTVNYAQKILGRVTITADEDTVSMELSSLGFEDTAVYYCAREVNLKSWNLAHPDVFDIWGQGTLVTVSS
VL: ELTQSPSSLSASVGDRVTITCRASQSIRSYLNWYQQKPGKAPNLLIYSASNLQSGVPSRFRGSGSGTDFTLTISSLQPEDFATYYCQQSYRTPRTFGQGTKVESKR
B8: Fab N3 (Fab, V domains shown)
VH: VQLLEQSGAEVKKPGDSLRISCKMSGDSLVWIGWVRQKPGQGLEWMGIINPGDSATNIYPGDSDTRYGPSFQGQVTISIDKSTSTAYLQWNAVKASDTGIYYCARHVPVPISGTFLWREREMHDLGYFDDWGQGTLVIVSS
VL: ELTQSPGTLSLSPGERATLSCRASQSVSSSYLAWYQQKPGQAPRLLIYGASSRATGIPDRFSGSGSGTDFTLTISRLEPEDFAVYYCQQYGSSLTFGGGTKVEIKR
notes: Soluble Fab
B9: Fab O1 (Fab, V domains shown)
VH: VQLLEQSGAEVKKAGESVRLSCKASGYRFGDYWIAWVRQLPGRAPEWMGIIYPDDSDTKYSPSFQGQVTISADKSIRTTFLDWGSLKASDTAIYYCARGCLGAKCYYPHYYYGLDVWGQGTTVIVSS
VL: ELTQSPSSLSASVGDRVTITCRATQGIDNYLNWYQQKPGKPPRLLIYGASSLQSGVPSRFSGGGSGTHFTLTITNLQPEDFATYYCQQSYSTPPETFGQGTKVEIKR
notes: Soluble Fab

Key:
[1] = target: T1, HCV E1E2 complex, isolate H77 (genotype 1a) (hepatitis C virus genotype 1a, isolate …, UniProt P27958 192-383; P27958 384-746); assay: Fab screen after panning on E1E2 (H77)
[2] = target: T1, HCV E1E2 complex, isolate H77 (genotype …); assay: Fab ELISA on unmasked E1E2

Binder	binding result [1]	binding result [2]
B1	binds	–
B2	–	binds
B3	–	binds
B4	binds	–
B5	binds	–
B6	binds	–
B7	binds	–
B8	–	binds
B9	–	binds
